PMC3078936, “Directed Evolution Reveals the Binding Motif Preference of the LC8/DYNLL Hub Protein and Predicts Large Numbers of Novel Binders in the Human Proteome” (PLoS ONE, 2011)
Ends that are not written are not given here.

Legend:
[1] = biological target: T1, LC8 dynein light chain DYNLL1 (residues 1-89) (human (from the printed UniProt …, UniProt P63167 1-89)); test: ITC; 15 µM DYNLL1 in the cell, 30-40 injections of 3-5 µl peptide; PBS with 3 mM 2-mercaptoethanol, pH 7.4; 299 K; A + B to AB model; details: both partners purified
T1 construct: DYNLL1, residues 1-89, UniProt P63167, cloned into pET-15b; The methods name thrombin removal of the His tag only for DYNLL2; also called DYNNL1; source: E. coli BL21(DE3)Star, purified (Ni IMAC, HiTrapQ anion exchange)
T1 sequence (P63167 whole entry, the tested form may be a part): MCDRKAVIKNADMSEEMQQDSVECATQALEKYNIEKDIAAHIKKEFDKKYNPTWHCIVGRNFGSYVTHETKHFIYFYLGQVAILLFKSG

[2] = biological target: T1, LC8 dynein light chain DYNLL1 (residues …); test: as above; details: both partners purified; remark: listed apart in the source
[3] = biological target: the molecule itself; test: crystal structure; DYNLL2 (1.2 mM dimer) with 1.3 mM dimerized-VSRGTQTE; hanging drop, 293 K, 20% PEG8000, 0.2 M MgCl2, 0.1 M TRIS pH 7.0

Row | Binder | stoichiometry N [1] | Kd [2] [µM] | dH [2] [kJ/mol] | binding result [3]
1 | Ac-DKSTQTD (also called natural consensus; Ac-5 version of the natural consensus; source: synthetic peptide) [Ac-DKSTQTD, naturally evolved consensus peptide] | 1 | 5.6 | -48.8 | –
2 | Ac-SRGTQTE (phage-selected consensus without position -5; also called Ac-5 version of the in vitro evolved consensus; source: synthetic peptide) [Ac-SRGTQTE] | 1 | 15.2 | -48.6 | –
3 | Ac-GSRGTQTE (phage-selected consensus with Gly at position -5; also called Gly-5 version of the in vitro evolved consensus; source: synthetic peptide) [Ac-GSRGTQTE] | 1 | 1.64 | -69.7 | –
4 | Ac-VSRGTQTE (also called phage selected consensus; source: synthetic peptide) [Ac-VSRGTQTE, in vitro evolved consensus peptide] | 1 | 0.08 | -75.6 | –
5 | dimeric-… (Leu-zipper dimerized … peptide) (first two residues (Gly-7, Ser-6) come from the recombinant construct; leucine zipper of yeast GCN4, residues 250-281; PDB 3P8M holds the construct; not shown: GST, N-terminal, cleaved) not shown | – | < 0.007 | -64.9 | binds
6 | EML3 (8-94), recombinant fragment (domain or fragment, human, UniProt Q32P44 8-94, looked up, also called EMAP-3; source: recombinant) GDGPAREALQSLSQRLRVQEQEMELVKAALAEALRLLRLQVPPSSLQGSGTPAPPGDSLAAPPGLPPTCTPSLVSRGTQTETEVELK | – | 0.05 | -32.4 | –
7 | Ac-GDKSTQTD (natural consensus extended by Gly at position -5; also called Gly-5 version of the natural consensus; source: synthetic peptide) [Ac-GDKSTQTD] | 1 | 0.56 | -70.3 | –
8 | Ac-VDKSTQTD (natural consensus extended by Val at position -5; also called Val-5 version of the natural consensus; source: synthetic peptide) [Ac-VDKSTQTD] | 1 | 0.07 | -65.4 | –
